# B1: anti-uPAR recombinant antibody 3159 (mouse/human chimeric IgG1) (antibody, V domains shown)
# VH: QVTLKESGPGILQSSLTLSLTCSLSGFSLSTSGMGVSWIRQPSGKGLEWLAHIYWDDDKRYNPSLKTRLTISKDASRDQVFLKIISVDTADTGTYYCGRRVRNYFSGTSYWYFDVWGTGTTVTVSS
# VL: DVLMTQTPLSLSVSLGDQASISCRSSQNILHRTGNTYLEWYLQKPGQSPKLLIYKVSNRFSGVPDRFSGSGSGTDFTLKISRLEAEDLGVYYCFQGSYVPFTFGSGTKLEMK
# B2: anti-uPAR recombinant antibody 8163 (mouse/human chimeric IgG1) (antibody, V domains shown)
# VH: EVQLVESGGGLVQPGESLTLSCDSNEFDFPSHDMSWVRKTPEKRLELVAAIDSDGGLTYYSNSRERRFIISRDNTKNTLYLQMRSLRSEDTALYYCARRRASYWYFDVWGTGTTVTVSS
# VL: DILLTQSPAILPVSPGERVSFSCRASQNIGTSIHWYQQRTNGSPRLLIKYASESISGIPSRFSGSGSGTDFTLSINGVESEDIGDYYCQQSNSWPTFGGGTKLEIK
# B3: anti-uPAR recombinant antibody 11857 (mouse/human chimeric IgG1) (antibody, V domains shown)
# VH: EVQLRQSGPELVKPGASVKISCKASGYTFTDYYMNWVKQSHEKSLEWIGNINPNNGGTDYNQKFKGKATLTVDKSSSTAYMELRSLTSEDSAVYYCARSYGSRFPYWGLGTLVTVSA
# VL: DIQMTQTTSSLSASLGDRVTISCRASQDITNYLSWYQQKPDGTVKLLIFYTAVLQSGFPLRFSGSGSGADYSLTISNLEQEDFATYFCQQGHTLPWTFGGGTKLEIK
# What was measured:
# [1] = biological target: T1, human uPAR on the surface of MDA-MB-231 cells (Homo sapiens (endogenous, MDA-MB-231), UniProt Q03405); experiment: cell-based or functional assay
# T1 sequence (Q03405 23-305): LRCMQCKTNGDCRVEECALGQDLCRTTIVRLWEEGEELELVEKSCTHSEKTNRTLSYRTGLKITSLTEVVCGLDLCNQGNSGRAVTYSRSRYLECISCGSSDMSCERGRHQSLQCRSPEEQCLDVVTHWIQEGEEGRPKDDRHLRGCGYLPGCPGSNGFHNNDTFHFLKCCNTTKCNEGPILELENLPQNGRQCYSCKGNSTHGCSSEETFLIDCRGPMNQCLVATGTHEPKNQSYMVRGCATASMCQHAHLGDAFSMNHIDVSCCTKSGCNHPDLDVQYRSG
# [2] = biological target: T1, human uPAR on the surface of MDA-MB-231 …; experiment: flow cytometry on cells
# [3] = biological target: recombinant human soluble uPAR (suPAR) (human, UniProt Q03405, biotin (in the BLI experiments)); experiment: ELISA
# recombinant human soluble uPAR (suPAR), sequence (Q03405 23-305): as above
# cynomolgus monkey uPAR = cynomolgus monkey uPAR (Macaca fascicularis, UniProt Q9GK78); experiment: ELISA
# cynomolgus monkey uPAR, sequence (Q9GK78 23-305): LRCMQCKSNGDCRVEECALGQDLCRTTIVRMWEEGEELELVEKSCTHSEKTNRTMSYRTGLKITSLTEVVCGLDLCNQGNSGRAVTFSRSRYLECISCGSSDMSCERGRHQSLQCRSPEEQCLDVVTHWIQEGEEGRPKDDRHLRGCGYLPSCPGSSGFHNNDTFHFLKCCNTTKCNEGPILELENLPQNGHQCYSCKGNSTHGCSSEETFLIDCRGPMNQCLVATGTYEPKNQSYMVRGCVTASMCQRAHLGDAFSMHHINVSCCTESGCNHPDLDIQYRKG
Binder,"ADCC against MDA-MB-231 cells with NK-92 MI CD16a effector cells, EC50 [1] [nM]","ADCC against MDA-MB-231 cells with NK-92 MI CD16a effector cells, Max% [1] [%]","ADCC against MDA-MB-231 cells with human PBMCs, EC50 [1] [nM]","ADCC against MDA-MB-231 cells with human PBMCs, Max% [1] [%]",EC50 [2] [nM],EC50 [3] [nM],EC50 (cynomolgus monkey uPAR) [nM]
B1,0.89,28.2,0.11,47.4,0.92,0.53,0.27
B2,1.14,18.8,0.09,57.5,0.69,0.41,0.15
B3,5.59,27.2,0.35,52,2.07,0.52,0.18

# Source: PMC9988344 (mAbs, 2023)
